The values below are quoted from earlier work in patent US20200378979.

The target in series [1] is T1, thrombin (cited work) (UniProt P00734+P00734). The series is described as follows: ITC. To be noted: CITED Pagano et al. 2008.
Series [2] addresses T1, thrombin (cited work). The series is described as follows: FP. The conditions noted are these: 5'-FAM; CITED Van Riesen et al. 2018.

Regarding GGTTGGTGTGGTTGG [native TBA], the Kd in the series with thrombin (cited work) [1] is 330 nM.
As to GGTTGGTGTGGTTGG [5'-FAM-TBA], the dissociation constant Kd with thrombin (cited work) [2] is 4900 nM.
